From patent publication US20050014220A1

Target: bovine thrombin (bovine) (UniProt P00735)
Test: cell-based or functional assay

| rate of change in absorbance of the chromogenic substrate S2238 at 405 nm (thrombin-dependent activation of protein C on COS cells) [units/min] | Substance |
| --- | --- |
| 0.21 | wild-type murine thrombomodulin expressed on COS cells (from UniProt P15306 17-577) (receptor) |
| 0.23 | mutated murine thrombomodulin lacking the N-terminal lectin-like domain, expressed on COS cells (from UniProt P15306 17-577) (receptor) |
